Reference: the supplement of paper PMC9170038

Tested on: MS2 coat protein
Assay: apparent KD of MS2 coat protein; designed switch direction (-1 OFF switch, 1 ON switch): -1; higher = weaker reporter binding
In short: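 Apparent KD, taken as the median over clusters for each design, was obtained by curve-fitting normalised cluster fluorescence. Designed RNA switches had been transcribed on Illumina chips by stalled E. coli RNA polymerase and titrated with SNAP-549-labelled MS2 coat protein, doubling from 0.7 or 1.5 nM to 3 µM.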

[1] = input ligand: microRNA oligo, concentration not stated
[2] = Eterna round: R95, input ligand: FMN 200 uM
[3] = Eterna round: R95, input ligand: microRNA oligo, concentration not stated
[4] = Eterna round: R95, input ligand: none

Sequence	apparent KD of MS2 coat protein (input ligand: FMN 200 uM)	apparent KD of MS2 coat protein (input ligand: none)	apparent KD of MS2 coat protein [1]	apparent KD of MS2 coat protein [2]	apparent KD of MS2 coat protein [3]	apparent KD of MS2 coat protein [4]
AGGCUGUCAGGAUAUCUGCGCCGCUGUACGCGGCGUUAUAAAGAGAAGGGACAUGAGGAUCACCCAUGUCCUCA [EX4 B.14] (Eterna round: R97, puzzle: Exclusion 4)	0.109 µM	0.0195 µM				
ACUUAUAGAGGAUAUACAGAAUAUUACAUGAGGAUCACCCAUGUUCUUCAAUGUAUAUAUGUAGAAGGCUAAGGUU [Mat - Exclusion 5 - JL Mod - D7] (Eterna round: R97, puzzle: Exclusion 5)	0.286 µM	0.131 µM				
UACAUGAGGAUCACCCAUGUUUUGUCGUGUAUGGUAUUUAUCUAGGAUAUCAUUUAAUUUAUUUAUGAGAAGGAGAAUAUUAAU [JMF's solution 99] (Eterna round: R96, puzzle: Exclusion NG 3)	0.0298 µM	0.0311 µM	0.028 µM			
AGUAGUAGUGUCCGAUCCUACAUGAGGAUCACCCAUGUAGCUAGACGUGCACGCGAUGCUCGUCAGACUACCAGAUG [salish99_TOv1_r3_046] (puzzle: Sensor v3, turn-off variant 1)				0.0837 µM	0.0887 µM	0.129 µM
GGGUGACAGUUAGGAUAUCUUAGCACGCCGUAGAGAGAAGGGACAUGAGGAUCACCCAUGUUGUAGUGCCUCAAACACUGCUAG [Beintitian] (Eterna round: R96, puzzle: Exclusion NG 1)	0.0457 µM	0.0483 µM	0.0319 µM			
CUUUUGUGAGGAUAUUAGUAGUAAAUAAAUAAAAUUACUACUGAGAAGGCACAUGAGGAUCACCCAUGUUCCUC [salish99_ex4_r3_041] (Eterna round: R96, puzzle: Exclusion 4)	0.424 µM	0.0354 µM	0.0328 µM			
GAGAAUUUAUAGGAUAUCGUAUGCAUAAUUUAACGAGAAGGAUGAACAUGAGGAUCACCCAUGUGGUAUCAUGG [salish99_ex6_r3_001] (puzzle: Exclusion 6)				0.0889 µM	0.192 µM	0.122 µM
AUAUGUGCGAGAGGAUAUCGUGUACAAAGUACACGAGAAGGCUUCACAUGAGGAUCACCCAUGUACCGAGGUGAAACACCUUGA [Omei Exc(NG)1 Bv5] (Eterna round: R96, puzzle: Exclusion NG 1)	0.357 µM	0.234 µM	0.156 µM			
GUACGGUAAGGAUAUUGGAGGCCAAAGCACGAGUAGUACUCUAAGAAGGUACAUGAGGAUCACCCAUGUACGAG [Eternabot (L2) Solution 63] (Eterna round: R97, puzzle: Exclusion 4)	0.0188 µM	0.0169 µM				
CGCUGGACAGGAUAUGUUCUUGGGCACUUGAGGAUCACCCAAGUCAUCGGGACAUCAGGCACAGAAGGGUUUAUGG [salish99_ex5_r4_026] (Eterna round: R97, puzzle: Exclusion 5)	0.0191 µM	0.0211 µM				
CUGGAGUCAGGAUAUGACGCAGUCCGCCCAAAUAGCGGAAAUCAGAAGGGACUUGAGGAUCACCCAAGUAAAAG [Qubilexe] (Eterna round: R97, puzzle: Exclusion 4)	0.0297 µM	0.0218 µM				
AGCGCCAUCGUGAGAUGGCGUAUUACAUGAGGAUCACCCAUGUAGGAUAUCGAUUGCUUUGCAGUCGAGAAGGGCAUGUACCAG [JL ENG3 3.80 Mod K] (Eterna round: R96, puzzle: Exclusion NG 3)	0.0547 µM	0.046 µM	0.0328 µM			
UCUGGGUCUGUGAGGAUAUCGGGCCCGAAAGGGCCCGAGAAGGCACAUGAGGAUCACCCAUGUAAGGGCUCGGG [-38.4, -36.3 kcal, A 23%, 0-7bis] (Eterna round: R97, puzzle: Brourd's mod of Exclusion 4)	0.0203 µM	0.025 µM				
ACUAGAUGAGGAUAUGCAUAUUUUCGUGUUCUUCUAGGUUAACAUGAGGAUCACCCAUGUAGAAGGCGUCUAUC [Exclusion 2 - 25] (puzzle: Exclusion 2)					0.0216 µM	
GGAUCGAGUGUGAGGAUAUACCACUGGAUACAGUGGUAGAAGGCACAUGAGGAUCACCCAUGUCCCUACGAUCC [Fiskers BMX 4 - 45] (puzzle: Brourd's mod of Exclusion 4)					0.0282 µM	
ACAUGAGGAUCACCCAUGUUUUUCGGGUACUCUUUUUACAGCAAGGAUAUGCAUUAUUUAUGUACGCAGAAGGUGCUUUACGUC [JR_ExcNG3_Sub065] (Eterna round: R96, puzzle: Exclusion NG 3)			0.0829 µM			
CUUAGUAUCUAGGAUAUCUAGUACAUAGUAUCUAGAGAAGGAGAUACAUGAGGAUCACCCAUGUUCUGUGUUCU [Exclusion 6 - 1:b] (puzzle: Exclusion 6)					0.0222 µM	
ACGCCAGGAGGAUAUGCAAUAAGUAACAUGAGGAUCACCCAUGUUCGGGCGAUCCUCGUGGCAGAAGGCCUAGCCG [Attira] (Eterna round: R97, puzzle: Exclusion 5)	0.0955 µM	0.0244 µM				
UGAUCUUUUGUUAGGAUAUGCUGUUUUUUUUUUCAGCAGAAGGGACAUGAGGAUCACCCAUGUUUUGUCAUAAA [Magic-06] (puzzle: Brourd's mod of Exclusion 4)					0.0144 µM	
AUUAUAUAGGAAGGAUAUAGAAUAUUAUUUUAACAUGAGGAUCACCCAUGUAACCUUAUGUGUAGCUAGAAGGUCCAUUUAUUA [Title] (Eterna round: R96, puzzle: Exclusion NG 2)			0.0956 µM			
AUAAAAUAGGAGGAUAUCGUAUCGGAAACGAUACGAGAAGGUCUAACAUGAGGAUCACCCAUGUUCCUCAAUAA [Mat - Exclusion 6 - Eli Mod - D46] (puzzle: Exclusion 6)				0.142 µM	0.0363 µM	0.0376 µM
AAAUCGGUAGAGGAUAUUGUACAGGAAACGGUGCAAGAAGGUUGCACAUGAGGAUCACCCAUGUUAAAUUGCGA [EX6 #51] (Eterna round: R97, puzzle: Exclusion 6)	0.0394 µM	0.0388 µM				
CUCAUUUGUCAGGAUAUCGUGAGGCUAAUUAUACGAGAAGGGACGACAUGAGGAUCACCCAUGUGGUCUUUGAG [JR_Ex6_Sub082] (Eterna round: R97, puzzle: Exclusion 6)	0.161 µM	0.0333 µM				
GCGUGGACUGAGGAUAUCCGAACGGUGCACGGAGGAGAAGGUAGGACAUGAGGAUCACCCAUGUGAACCUAGAU [Ceinormaat] (Eterna round: R97, puzzle: Exclusion 6)	0.0206 µM	0.0198 µM				
UCUUACUGAGGAUAUACAUAGAUUUACAUGAGGAUCACCCAUGUUCCUCUAUGUAUAAAUGUAGAAGGCAGAAGAA [Mat - Exclusion 5 - JL Mod - D53] (Eterna round: R97, puzzle: Exclusion 5)	0.0826 µM	0.0178 µM				
GAUUAUGCGAGCUUUAGGGACAUGAGGAUCACCCAUGUUCGUCUUAUUGGUCUAGAUGCACUAACAUACCUAAAUCU [JMF 26] (puzzle: Sensor v3, turn-off variant 1)				0.018 µM	0.0244 µM	0.0182 µM
